Assay results: paper PMC9313131 (2022)

B1: CDC37 (cell division cycle 37), wild type, full-length (natural protein)
chain: MVDYSVWDHIEVSDDEDETHPNIDTASLFRWRHQARVERMEQFQKEKEELDRGCRECKRKVAECQRKLKELEVAEGGKAELERLQAEAQQLRKEERSWEQKLEEMRKKEKSMPWNVDTLSKDGFSKSMVNTKPEKTEEDSEEVREQKHKTFVEKYEKQIKHFGMLRRWDDSQKYLSDNVHLVCEETANYLVIWCIDLEVEEKCALMEQVAHQTIVMQFILELAKSLKVDPRACFRQFFTKIKTADRQYMEGFNDELEAFKERVRGRAKLRIEKAMKEYEEEERKKRLGPGGLDPVEVYESLPEELQKCFDVKDVQMLQDAISKMDPTDAKYHMQRCIDSGLWVPNSKASEAKEGEEAGPGDPLLEAVPKTGDEKDVSV
B2: sBRAF, solubilized version of BRAF kinase domain (residues 423-723), V600 background (domain or fragment)
chain: QRERKSSSSSEDRNRMKTLGRRDSSDDWEIPDGQITVGQRIGSGSFGTVYKGKWHGDVAVKMLNVTAPTPQQLQAFKNEVGVLRKTRHVNILLFMGYSTKPQLAIVTQWCEGSSLYHHLHASETKFEMKKLIDIARQTARGMDYLHAKSIIHRDLKSNNIFLHEDNTVKIGDFGLATVKSRWSGSHQFEQLSGSILWMAPEVIRMQDSNPYSFQSDVYAFGIVLYELMTGQLPYSNINNRDQIIEMVGRGSLSPDLSKVRSNCPKRMKRLMAECLKKKRDERPSFPRILAEIEELARELSG

Experiments:
[1] = target: sBRAF V600E (solubilized BRAF kinase domain, residues 423-723, V600E) (human, UniProt P15056 423-723, V600E); assay: ITC
[2] = target: B1; assay: ITC

| Ka [1] [M⁻¹] | Ka [2] [M⁻¹] | Binder |
| --- | --- | --- |
| 2.44e+06 |  | B1 |
|  | 965000 | B2 |
